The values below are quoted from earlier work in patent publication US9700485B2, “Delamination resistant pharmaceutical glass containers containing active pharmaceutical ingredients” (Corning Incorporated, priority 2013, dated 2017).

Like-named read-outs stand apart in the source and are kept apart here.

In data set [1] the target is T1, human IL-17 (Homo sapiens, UniProt Q16552). Particulars: cited from earlier work; for Kd: read-out: KD or binding affinity.
For data set [2] the following is noted: in use test, 10 samples, cited from earlier work.
The conditions of data set [3]: shaking test, 5 samples, cited from earlier work.
Data set [4] concerns the target T2, EGFR (Homo sapiens, UniProt P00533). Particulars: cited from earlier work.
Data set [5] concerns EGFR-AP fusion protein. Particulars: cited from earlier work; for Koff / Kon: BIAcore, immobilized EGFR-AP fusion protein.
For data set [6], the target named is T3, EGFR on HT29 cells (Homo sapiens, UniProt P00533).
T3 construct: HT29 cells were seeded at 2×10^4 cells per well; endogenous in cells; host or cells: HT29
Particulars: 10 to 100 nM; cited from earlier work.

In data set [7] the test system is MAP kinases p44/p42. Particulars: A431, BxPC3 and HT-29 cells; EGF stimulation; cited from earlier work.
Data set [8] has as its system DiFi cells. Particulars: 72 hours; cited from earlier work.
Data set [9] deals with DiFi cells. Particulars: cited from earlier work.
In data set [10] the test system is A431 cells. Particulars: cited from earlier work; for tumor growth: three times per week.
Data set [11] deals with BxPC-3 cells. Particulars: 1.0 mg/mouse/injection; out of 8 mice; cited from earlier work.
Data set [12] relates to A431 and BxPC3 xenograft. Particulars: A431 and BxPC3 xenograft sections; cited from earlier work.
For data set [13], the target named is T2, EGFR. More on the design: endogenous in cells; host or cells: A431; inhibition of EGFR phosphorylation: dose or concentration left out as unconfirmed. Particulars: cited from earlier work.
In data set [14] the target is T2, EGFR. More on the design: phosphorylation assay, was carried out using BxPC3 or A431 cells; endogenous in cells; host or cells: BxPC3 or A431. Particulars: BxPC3 and A431 cells; vs control antibody; cited from earlier work.
The conditions of data set [15]: −20° C. up to 16 days; DOE; cited from earlier work.
For data set [16] the following is noted: 40° C. up to 14 days; DOE; cited from earlier work.
Data set [17] concerns the target T1, human IL-17. Particulars: as characterized in the description, cited from earlier work.
The test system of data set [18] is HT-29 cells. Particulars: cited from earlier work.
Data set [19] concerns the target T4, hTNFSF13b (Homo sapiens, UniProt Q9Y275).
T4 construct: purchased Research Diagnostics, Inc., Flanders, N.J
Particulars: as characterized in the description (e.g.); cited from earlier work.

T1 sequence (Q16552 24-155): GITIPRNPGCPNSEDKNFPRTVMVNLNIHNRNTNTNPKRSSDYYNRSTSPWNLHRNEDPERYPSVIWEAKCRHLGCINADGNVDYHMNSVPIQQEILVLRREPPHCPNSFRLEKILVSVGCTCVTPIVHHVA
T4 sequence (Q9Y275 134-285 limits assumed): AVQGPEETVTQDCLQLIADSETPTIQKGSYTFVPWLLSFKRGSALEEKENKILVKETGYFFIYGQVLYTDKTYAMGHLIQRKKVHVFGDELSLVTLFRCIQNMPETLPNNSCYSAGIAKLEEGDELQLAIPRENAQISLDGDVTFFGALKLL

On to “IL-17 receptor Fc-fusion protein: IL-17 receptor Fc-fusion protein (R&D #177-IR)”, for which, in [1] (Bivalent analyte model, 25° C.), the fast off-rate was 20.3 s⁻¹, the on-rate is 106000 M⁻¹ s⁻¹ and the slow off-rate is 0.000163 s⁻¹. For the same molecule, the Kd (commonly a measure of binding affinity in units of concentration) in data set [1] (from fast off-rate) was 190000 nM. The Kd in data set [1] (from slow off-rate) is 1.5 nM.

With “21^A-Gly-30^Ba-L-Arg-30^B-L-Arg human insulin [Insulin glargine]”, in data set [2] (storage for 1 month at 37° C.), the “Number of vials with particle formation after 7 days” value (from here on “Number of vials … after 7 days”) was 0, the “Number of vials with particle formation after 14 days” value (shortened to “Number of vials … after 14 days”) is 10, the “Number of vials with particle formation after 21 days” value (“Number of vials … after 21 days” for short) was 10 and the “Number of vials with particle formation after 28 days” value (“Number of vials … after 28 days” below) is 10. In data set [2] (storage for 3 months at 5° C.), the “Number of vials … after 7 days” value is 7, the “Number of vials … after 14 days” value was 10, the “Number of vials … after 21 days” value is reported as 10 and the “Number of vials … after 28 days” value is on record as 10. Further, in data set [2] (storage for 3 months at 25° C.), the “Number of vials … after 7 days” value is on record as 9, the “Number of vials … after 14 days” value is reported as 10, the “Number of vials … after 21 days” value is recorded as 10 and the “Number of vials … after 28 days” value is recorded as 10. Also, in data set [2] (storage for 3 months at 37° C.), the “Number of vials … after 7 days” value is given as 5, the “Number of vials … after 14 days” value is listed as 9, the “Number of vials … after 21 days” value is 10 and the “Number of vials … after 28 days” value was 10. In addition, in data set [2] (storage for 6 months at 5° C.), the “Number of vials … after 7 days” value was 7, the “Number of vials … after 14 days” value was 10, the “Number of vials … after 21 days” value is given as 10 and the “Number of vials … after 28 days” value is listed as 10. Besides, in data set [2] (storage for 6 months at 25° C.), the “Number of vials … after 7 days” value is given as 10, the “Number of vials … after 14 days” value is on record as 10, the “Number of vials … after 21 days” value is on record as 10 and the “Number of vials … after 28 days” value was 10. For the same molecule, in data set [2] (storage for 6 months at 37° C.), the “Number of vials … after 7 days” value is 10, the “Number of vials … after 14 days” value was 10, the “Number of vials … after 21 days” value was 10 and the “Number of vials … after 28 days” value was 10. Also, in data set [3] (storage for 1 month at 5° C.), the “Number of Vials >15 FNU, 0 days” value was 0; the “Number of Vials >15 FNU, 0.5 days” value is 0; the “Number of Vials >15 FNU, 1 day” value was 0; the “Number of Vials >15 FNU, 2 days” value is 2. Also, in data set [3] (storage for 1 month at 5° C.), the “Number of Vials >15 FNU, 3 days” value is listed as 3; the “Number of Vials >15 FNU, 4 days” value was 3; the “Number of Vials >15 FNU, 6 days” value is listed as 4; the “Number of Vials >15 FNU, 8 days” value is 4. The “Number of Vials >15 FNU, 10 days” value in [3] (storage for 1 month at 5° C.) is reported as 4. In data set [3] (storage for 1 month at 25° C.), the “Number of Vials >15 FNU, 0 days” value is 0; the “Number of Vials >15 FNU, 0.5 days” value was 0; the “Number of Vials >15 FNU, 1 day” value is 0; the “Number of Vials >15 FNU, 2 days” value is reported as 1. Also, in data set [3] (storage for 1 month at 25° C.), the “Number of Vials >15 FNU, 3 days” value is 1; the “Number of Vials >15 FNU, 4 days” value was 1; the “Number of Vials >15 FNU, 6 days” value is given as 1; the “Number of Vials >15 FNU, 8 days” value is given as 2. Besides, in [3] (storage for 1 month at 25° C.), the “Number of Vials >15 FNU, 10 days” value is given as 3. In data set [3] (storage for 1 month at 37° C.), the “Number of Vials >15 FNU, 0 days” value is reported as 0; the “Number of Vials >15 FNU, 0.5 days” value is recorded as 0; the “Number of Vials >15 FNU, 1 day” value was 0; the “Number of Vials >15 FNU, 2 days” value is reported as 2. Besides, in data set [3] (storage for 1 month at 37° C.), the “Number of Vials >15 FNU, 3 days” value is on record as 5; the “Number of Vials >15 FNU, 4 days” value is listed as 5; the “Number of Vials >15 FNU, 6 days” value is 5; the “Number of Vials >15 FNU, 8 days” value was 5. The “Number of Vials >15 FNU, 10 days” value in data set [3] (storage for 1 month at 37° C.) is reported as 5.

“IMC-11F8: fully human monoclonal antibody (IgG1) that binds to human EGFR”: the “binding to EGFR (ELISA)” value in data set [4] is given as “comparable binding to EGFR”. In data set [5] (Format Fab), the Koff is 36.7 ± 8.5 10^−4s^−1 and the Kon is on record as 22.9 ± 9.9 10^5 M^−1s^−1. Also, in data set [5] (Format Fab, calculated as koff/kon), the Kd is 1.78 ± 0.5 nM. In addition, in data set [5] (Format IgG), the Koff was 5.8 ± 2.2 10^−4s^−1 and the Kon is on record as 18.6 ± 7.7 10^5 M^−1s^−1. In addition, the “inhibition of ^125I-EGF binding” value in data set [6] was “as efficient as IMC-C225 in inhibiting ^125I-EGF binding to EGFR on HT29 cells”. In [7], the “p44/42 MAP kinases phosphorylation” value is “blocked p44/42 MAP kinases phosphorylation following EGF stimulation in A431, BxPC3 and HT-29 cells in a dose-dependent manner”. Further, the “inhibition of cell proliferation (MTT)” value in data set [8] is recorded as “as potent an inhibitor of cell proliferation as IMC-C225”. Also, the ADCC activity result in data set [9] is on record as “mediate cell death via activation of the Antibody Dependent Cellular Cytotoxicity”. The tumor growth result in data set [10] (0.3 mg dose i.p.) is “progression of tumor growth is retarded”. In addition, the tumor growth result in data set [10] (1 mg dose i.p.) is given as “as effective as IMC-C225 (CETUXIMAB) in suppressing or inhibiting tumor growth as compared to control animals”. Besides, in data set [10] (1.0 mg/mouse/injection, out of 8 animals), the tumor regressions is listed as 6. Moreover, in [11], the tumor regression was 5. For the same molecule, in data set [12], the Ki-67 positive cells entry is “reduced the percentage of Ki-67 positive cells across the entire tumor section”; the “tumor cell density and necrotic area (IHC)” value was “markedly reduced the tumor cell density and increased the area of necrotic acellular debris within the tumors”. Moreover, the “inhibition of EGFR phosphorylation” value in data set [13] (A431, BxPC3, HT-29, lowest antibody concentration tested) is listed as “Greater than 70%”. Further, the “EGFR phosphorylation (Western blot)” value in data set [13] (A431 cells) is listed as “inhibits EGFR phosphorylation”. Besides, the “phosphorylation of EGFR (KIRA)” value in [14] is recorded as “marked decrease in phosphorylation of EGFR”.

On to “IMC-1121B: fully human monoclonal (IgG1) anti-VEGFR-2 (flk-1) antibody”, for which, in data set [15], the “optimal pH” value was 6.0. In addition, the optimal buffer entry in [16] is given as “histidine at pH 6.0”.

Take “LY2439821: humanized anti-IL-17 (IL-17A) monoclonal antibody”: the “koff rate from human IL-17” value in data set [17] is given as “less than 2×10^−5 s^−1”. For the same molecule, in data set [17] (read-out: binding affinity (KD) for human IL-17), the Kd was less than 0.007 nM.

In the case of “Human IL-17: recombinant human IL-17 (R&D Systems)”, the “AVG GROα” value was 205.8 pg/mL in data set [18] (Human IL-17 0.10 ng/mL) and 960.0 pg/mL in [18] (Human IL-17 12.00 ng/mL). In addition, the “AVG GROα (pg/mL)” value in data set [18] (Human IL-17 60.00 ng/mL) is 1,556.0 pg/mL; in [18] (Human IL-17 300.00 ng/mL) it was 2,047.5 pg/mL; in [18] (Human IL-17 1500.00 ng/mL), 2,420.4 pg/mL.

B1: LY2127399: human monoclonal antibody that specifically binds to TNFSF13b polypeptides (antibody, chains of the INN, looked up, V domains shown)
VH: QVQLQQWGAGLLKPSETLSLTCAVYGGSFSGYYWSWIRQPPGKGLEWIGEINHSGSTNYNPSLKSRVTISVDTSKNQFSLKLSSVTAADTAVYYCARGYYDILTGYYYYFDYWGQGTLVTVSS
VL: EIVLTQSPATLSLSPGERATLSCRASQSVSRYLAWYQQKPGQAPRLLIYDASNRATGIPARFSGSGSGTDSTLTISSLEPEDFAVYYCQQRSNWPRTFGQGTKVEIK
Consider B1, for which the Kd in data set [19] was no more than 10 nM.
